Assay results taken from patent US20090286314A1 (Innovent, published 2009).
Residue numbers refer to the chain shown, from its start.

B1: double mutant of R-5 (Mut B) (other)
chain: MSLPATHDLHISGSINGHEFDLEGSGKGNAKEGYQELHLKSNKGDLSFSPWILVPNIGYGFYQYLPFPDGAMSPYQAAMHDGSGYVMHRSMQFEDGAMLHSDHRYIYKGNHIKGEFRLKGSGFPADGPVMTNSLTAADWCVDKLLYPNDNTIIGKFDWTYTTTSGKRYQSDVQTTVTFGKPIAADILKKQPMFVFRKVELKHTKTELNFKQWQKAFQDIA
notes: Expressed in E. coli and purified; Eluted as a dimer; also called dimeric mutant
B2: triple mutant of R-5 (Mut C) (other)
chain: B1 chain with D157K
notes: Expressed in E. coli and purified; Eluted as a monomer; also called R-5C; monomeric mutant

Legend:
[1] = target: the molecule itself; test: gel chromatography, HiPrep Sephacryl S-200, high protein concentrations (self-association)
Excerpt: (§1) The wild-type fluorescent proteins have a tendency to self-aggregate and form tetramers. Among the limited number of new FPs that we so far have analyzed, no monomeric variant has been observed, but the tendency to self-aggregate appears to vary among individual variants. In order to generate a pure monomeric variant, which would be advantageous for certain applications, the protein R-5 (SEQ ID NO: 79) was subjected to limited mutagenesis after extensive 3-D modelling. Three amino acid residues were chosen as suitable candidates for mutagenesis, and three mutants with single, double and triple mutations were constructed and custom made by an external laboratory. After expression in E. coli and purification their aggregation state were analyzed by gel-chromatography on a HiPrep Sephacryl S-200 column. The conditions used (i.e. high protein concentrations) were chosen to promote aggregation, and EGFP, which is a weak forming dimer, did elute as a peak with an apparent molecular weight of ˜60 kDa, i.e. as a dimer.

[2] = target: the molecule itself; test: gel chromatography, HiPrep Sephacryl S-200, high protein concentrations chosen to promote aggregation (self-association)
Excerpt: as §1

| Protein | binding result [1] | binding result [2] |
| --- | --- | --- |
| B1 | binds | – |
| B2 | – | no binding |
